In patent US12180473B2, “Chimeric RNA-driven genomic rearrangement in mammalian cells” (priority 2018, dated 2024):
“Also recorded” adds a separate entry of the source. Where two headings read alike, the source gives them in different places.

Experiments:
TMPRSS2-ERG fusion [1] = experiment: RT-PCR detection of induced endogenous TMPRSS2-ERG fusion transcript in LNCaP cells expressing input RNA; details: for TMPRSS2-ERG fusion, specificity of input RNA: three-round nested PCR (FIG. 4C); for induction of endogenous TMPRSS2-ERG fusion transcript (RT-PCR): LNCaP cells transfected with input RNA plasmid, DHT for 3 days
[2] = system: TMPRSS2-ETV1 genomic breakpoints; experiment: Genomic PCR of TMPRSS2-ETV1 genomic breakpoints in enriched LNCaP population; format: cell-based, human; details: enriched vs untransfected LNCaP cells
Protocol: (§1) Nested long-range PCRs according to the manufacturer's protocols using LA PCR kit (Takara, #RR002M). 200 ng of genomic DNA was used in each reaction and PCR was performed with annealing and extension at 68° C. for 20 minutes. 1 μl from the above reaction (1st round PCR) was used as template for the 2nd round PCR.

TMPRSS2-ETV1 fusion gene = experiment: FISH with 3D image reconstruction, co-localization of TMPRSS2 and ETV1 in enriched LNCaP population; format: cell-based, human; details: 30 out of 3301 cells
Protocol: Enriched population carrying TMPRRS2-ETV1 fusion events were first grown on 18 mm round #1 coverglass in a 12-well cell culture plate at the initial density of 200-400 k/well. Cells were then fixed with 4% (vol./vol.) formaldehyde followed by denaturation of DNA with 0.1 N HCl for 5 min and with 70% formamide at 85° C. for 7 min. Hybridization of target DNA with probes were done at 37° C. for 16 hr in a humidified chamber. Cells were then washed, stained with DAPI and imaged with microscope. FISH probes for TMPRSS2 (RP11-35C4, red) and ETV1 (RP11-769K2, green) were purchased from Empire Genomics.

TMPRSS2-ETV1 fusion = experiment: RT-PCR detection of induced TMPRSS2-ETV1 fusion transcript in LNCaP cells; format: cell-based, human; details: for TMPRSS2-ETV1 fusion, specificity of input RNA: three-round nested PCR (FIG. 4C)
Protocol: • 1st Round: Top down PCR with TMPRSS2 ex-1 F1 and ETV1 ex-6 R1 • Denaturation 94° C., 30 sec • Annealing * , 45 sec • Extension 72° C., 60 sec
The Denaturation, Annealing and Extension steps were performed 2 cycles. • 2 cycles at each temperature: 62° C., 61° C., 60° C. . . .
Long Range PCR for Detecting Genomic DNA Fusion Junction

[3] = RT-PCR detection of input RNA in propagated/enriched LNCaP population; format: cell-based, human; details: enriched LNCaP population
Protocol: FIG. 18. Procedure used to propagate and enrich the induced LNCaP population for 52 days in the absence of DHT. LNCaP cells were transfected on day 1 with antisense-5 and incubated for 3 days with DHT. Cells were then divided into sub-populations. Half of the cells from each sub-population were harvested for RT-PCR assays to detect the induced fusion transcript whereas the other half was used to propagate the population. […] The process was continued for 52 days.

BCR-KCNQ2 fusion = experiment: Nested RT-PCR of induced BCR-KCNQ2 fusion transcript in HL-60 cells; format: cell-based, human
Source text: FIGS. 41A-41D. RNA-mediated inter-chromosomal BCR-KCNQ2 fusion in HL-60 cells by designed chimeric RNA. FIG. 41A. The design of chimeric RNA is based on the three-way junction that could be formed between genomic DNA (in the stem) and chimeric RNA (perpendicular and below the stem). The three-way junction consists of an RNA/DNA hybrid and a genomic DNA stem (black) between the parental genes (BCR and KCNQ2). The sense genomic strand of BCR gene is on the positive strand of chromosome 22 while that of KCNQ2 is on the negative strand of chromosome 20. Short lines in gray regions represent base pairings. FIG. 41B. […] This chimeric RNA target intron regions and has GC content of 55.4%. The fusion RNA transcribed from the induced fusion gene contains an annotated splice junction. In this case, two different fusion RNAs were confirmed based on the results derived from the Sanger sequencing data. FIG. 41B discloses the BCR targeting sequence as SEQ ID NO: 242, the KCNQ2 targeting sequence as SEQ ID NO: 243, and the chimeric sequence as SEQ ID NO: 244. FIG. 41C. Two BCR-KCNQ2 fusion transcript variants were induced in HL-60 cells by chimeric RNA targeting BCR and KCNQ2 genes in the genome without hormone or other stimuli. FIG. 41D. Schematic of induced BCR-KCNQ2 fusion transcripts derived from the Sanger sequencing data. […]

BCR-RANGAP1 fusion = experiment: Nested RT-PCR of induced BCR-RANGAP1 fusion transcript in 293T cells; format: cell-based, human
Source text: FIGS. 40A-40C. RNA-mediated intra-chromosomal BCR-RANGAP1 fusion in 293T cells by designed chimeric RNA. FIG. 40A. The design of chimeric RNA is based on the three-way junction that could be formed between genomic DNA (in the stem) and chimeric RNA (perpendicular and below the stem). The three-way junction consists of an RNA/DNA hybrid and a genomic DNA stem between the parental genes (BCR and RANGAP1). The sense genomic strand of BCR gene is on the positive strand of chromosome 22 while that of RANGAP1 is on the negative strand of chromosome 22, separated by 18 Mb. Short lines in gray regions represent base pairings. FIG. 40B. […] This chimeric RNA target intron regions and has GC content of 48.4%. The fusion RNA transcribed from the induced fusion gene contains an annotated splice junction. FIG. 40B discloses the BCR targeting sequence as SEQ ID NO: 239, the RANGAP1 targeting sequence as SEQ ID NO: 240, and the chimeric sequence as SEQ ID NO: 241. FIG. 40C. Intra-chromosomal BCR-RANGAP1 fusion transcript (arrow) induced by sequence-specific chimeric RNA in 293T cells without additional hormone or other stimuli. 293T cells were transfected with chimeric RNA expression plasmid. Total RNA was then harvested at day 3. Nested RT-PCR using specific primer pairs were used to detect the induced fusion transcript. […]

JAZF1-SUZ12 fusion = experiment: Nested RT-PCR of induced JAZF1-SUZ12 fusion transcript in 293T cells; format: cell-based, human
Source text: FIGS. 39A-39D. RNA-mediated inter-chromosomal JAZF1-SUZ12 fusion in 293T cells. FIG. 39A. The design of chimeric RNA is based on the three-way junction that could be formed between genomic DNA (in the stem) and chimeric RNA (perpendicular and below the stem). The three-way junction comprises an RNA/DNA hybrid and a genomic DNA stem between the parental genes (JAZF1 and SUZ12). The sense genomic strand of JAZF1 gene is on the negative strand of chromosome 7 while that of SUZ12 is on the positive strand of chromosome 17. Short vertical lines in gray regions between the chromosome and the chimeric RNA represent base pairings. FIG. 39B. […] This chimeric RNA target intron regions and has GC content of 27%. The fusion RNA transcribed from the induced fusion gene contains an annotated splice junction. In this particular case, two different fusion RNAs were confirmed based on the results derived from the Sanger sequencing data. FIG. 39B discloses the JAZF1 targeting sequence as SEQ ID NO: 236, the SUZ12 targeting sequence as SEQ ID NO: 237, and the chimeric sequence as SEQ ID NO: 238. FIG. 39C. Example of inter-chromosomal JAZF1-SUZ12 fusion transcript (arrow) induced by sequence-specific chimeric RNAs in 293T cells without additional hormone or other stimuli. 293T cells were transfected with chimeric RNA expression plasmid. Total RNA was then harvested at day 3. […]

TMPRSS2-ERG fusion [4] = system: TMPRSS2-ERG fusion
[5] = system: TMPRSS2-ERG genomic breakpoint; format: cell-based, human
Protocol: as §1
For the genomic breakpoint identified in this manuscript, 1st round long range PCR was done using primers TMPRSS2 genomic bk-F1 and ERG genomic bk-R1 shown in primer list below. 1 μl from the above reaction (1st round PCR) was used as template for the 2nd round PCR using inner primers TMPRSS2 genomic bk-F2 and ERG genomic bk-R2.

[6] = 293T, day 3, without hormone or other stimuli

B1: Antisense-TMPRSS2-ETV1-A1: input RNA, SEQ ID NO: 34; antisense RNA designed to target stem TMPRSS2-ETV1-A (nucleic acid)
antisense: TGTGCTCGCTTCGGCAGCACATATACTAACATTGGAACGATCCTGCAGTGCCGCATTATGTAAATCGTTCCAAGTTAAAGTCTTAGTTAGATTCAGTAGACTAGGAGCCAGCTTTGGGGACCCCGGGGGACTCTCTTCCACCAACTGG
- TMPRSS2-ERG fusion, specificity of input RNA (TMPRSS2-ERG fusion [1]; LNCaP): not TMPRSS2-ERG fusion
- genomic TMPRSS2-ETV1 fusion bands x, y, z [2]: present only in the induced and enriched LNCaP population
- cells positive for TMPRSS2-ETV1 fusion gene by co-localized FISH signals (TMPRSS2-ETV1 fusion gene): Approximately 0.9%
- TMPRSS2-ETV1 fusion, specificity of input RNA (TMPRSS2-ETV1 fusion; LNCaP): induced TMPRSS2-ETV1 fusion
- induction of TMPRSS2-ETV1 fusion transcript (RT-PCR) (TMPRSS2-ETV1 fusion; LNCaP, two-round nested PCR): clear induction of the TMPRSS2-ETV1 fusion transcript; also recorded: led to induced fusion transcript
- persistence of induced TMPRSS2-ETV1 fusion transcript (TMPRSS2-ETV1 fusion; enriched LNCaP population post initial treatment): ≥ 47 days
- Cell line(s) identified (TMPRSS2-ETV1 fusion; fusion gene partners TMPRSS2-ETV1): LNCaP
- time after transfection until which transiently expressed input RNA is present (RT-PCR) [3]: < 47 days

B2: S4 30-2: chimeric RNA, BCR-KCNQ2, GC content 55.4% (nucleic acid)
chain: GAGATCGAGACCATCCTGGCTAACGCAGTGAAACCCCGTCTCTACATTACCAGCCTTCACTGTTCTGACAGCTCCAGTAGCTGGGGGAGACC
modifications: listed as DNA, further chemistry not given here
- induction of BCR-KCNQ2 fusion (BCR-KCNQ2 fusion; HL-60, nucleofection, day 7): induce BCR-KCNQ2 fusion
- Cell line(s) identified (BCR-KCNQ2 fusion; fusion gene partners BCR-KCNQ2, HL-60): HL-60

B3: S1-7: chimeric RNA, BCR-RANGAP1, GC content 48.4% (nucleic acid)
chain: AGAATATGTGTAATTGTGTTACCAGCCTTCACTGTTCTGACAGCTCCAGTAGCTGGGGGAGACC
modifications: chimeric RNA, chemistry not given here
- induction of BCR-RANGAP1 fusion (BCR-RANGAP1 fusion; [6]): induce BCR-RANGAP1 fusion
- Cell line(s) identified (BCR-RANGAP1 fusion; fusion gene partners BCR-RANGAP1): 293T

B4: JS-8: chimeric RNA, JAZF1-SUZ12, GC content 27% (nucleic acid)
chain: TCAACAAAAGAACTATTGATTGATGCCAAACAAGATGAAAATTTCACTTTGCGTATTAGTTACCAAAGGTTTATTTATGTTTCTGTAATGCATATTTATA
modifications: chimeric RNA, chemistry not given here
- induction of JAZF1-SUZ12 fusion (JAZF1-SUZ12 fusion; [6]): induce JAZF1-SUZ12 fusion
- Cell line(s) identified (JAZF1-SUZ12 fusion; fusion gene partners JAZF1-SUZ12): 293T

B5: Antisense-5: input RNA, SEQ ID NO: 8 (nucleic acid)
antisense: TGTGCTCGCTTCGGCAGCACATATACTAACATTGGAACGATCCTGCAGCTTGAGCCATTCACCTGGCTAGGGTTACATTCCATATTGATGGTGACCCTGGCTGGGGGTTGAGACAGCCAATCCGCCGCTCACCTGCCGCGCTCCAGGCGGCGCTCCCCGCCCCTCGCCCTCCGCCAGACAGGAGTGAGAGATGGAAGCTCGCGCCTACTC
- induction of endogenous TMPRSS2-ERG fusion transcript (RT-PCR) (TMPRSS2-ERG fusion [1]): clear induction
- induction of endogenous TMPRSS2-ERG fusion transcript (RT-PCR) (TMPRSS2-ERG fusion [1]; listed as antisense-5): peaked; also recorded: sufficient to induce TMPRSS2-ERG gene fusion
- lowest DHT concentration at which fusion induction occurred (TMPRSS2-ERG fusion [1]; LNCaP, 3 days, three-rounds of nested PCR): 20 nM
- TMPRSS2-ERG fusion, specificity of input RNA (TMPRSS2-ERG fusion [1]; LNCaP): induced TMPRSS2-ERG fusion
- persistence of induced TMPRSS2-ERG fusion transcript (TMPRSS2-ERG fusion [1]; enriched LNCaP population propagated in absence of DHT and input RNA): ≥ 52 days
- Cell line(s) identified (TMPRSS2-ERG fusion [1]; fusion gene partners TMPRSS2-ERG, LNCaP): LNCaP,
- induction of TMPRSS2-ERG fusion after transfection of digested plasmid fragments (TMPRSS2-ERG fusion [1]; plasmid cut SacII/KpnI or SacII/PstI): induced only when the U6 promoter was attached to antisense-5 sequence
- TMPRSS2-ETV1 fusion, specificity of input RNA (TMPRSS2-ETV1 fusion; LNCaP): not TMPRSS2-ETV1 fusion
- time after transfection until which transiently expressed input RNA is present (RT-PCR) [3]: ≤ 17 days
- Cell line(s) identified (TMPRSS2-ERG fusion [4]): PNT1A
- endogenous ERG mRNA (RT-PCR) (ERG mRNA): not detected
- endogenous ERG mRNA (three-rounds of nested RT-PCR) (ERG mRNA): not detected
- genomic TMPRSS2-ERG fusion band (~862 bp, primer pair A/D) [5]: present only in the enriched LNCaP population
